Changes are numbered by the printed parent chain.
T1: human Fc-PD-L2 (R&D systems) (human, UniProt Q9BQ51 20-219)
T1 construct: Bought Fc fusion coated on the ELISA plate; also called human PD-L2; not shown: Fc part of the bought fusion protein
T1 sequence: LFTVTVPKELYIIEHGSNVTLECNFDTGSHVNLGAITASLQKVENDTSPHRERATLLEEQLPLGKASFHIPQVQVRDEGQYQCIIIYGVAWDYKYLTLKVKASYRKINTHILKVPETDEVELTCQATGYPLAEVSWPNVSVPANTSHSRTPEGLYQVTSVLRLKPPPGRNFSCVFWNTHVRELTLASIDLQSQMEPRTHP

B1: 29E.2A3 composite, human antibody VH2/VK2 (antibody, V domains shown)
VH: EVQLVQSGAEVKKPGASVKMSCKASGYTFTSYVMHWVKQAPGQRLEWIGYVNPFNDGTKYNEMFKGRATLTSDKSTSTAYMELSSLRSEDTAVYYCARQAWGYPWGQGTLVTVSS
VL: DIVLTQSPATLSLSPGERATLSCRATESVEYYGTSLVQWYQQKPGQPPKLLIYAASSVDSGVPSRFSGSGSGTDFTLTINSLEAEDAAMYFCQQSRRVPYTFGQGTKLEIK
notes: V regions cloned into vectors containing human constant regions (quantified against an IgG1/kappa standard; isotype not expressly stated)
B2: 29E.2A3 composite, human antibody VH2/VK1 (antibody, V domains shown)
VH: B1 VH
VL: B1 VL with T10S, S12A, A84E
notes: as for B1
B3: 29E.2A3 composite, human antibody VH4/VK2 (antibody, V domains shown)
VH: B1 VH with M20V, K38R
VL: B1 VL
notes: as for B1
B4: mouse anti-human PD-L1 antibody 29E.2A3 (antibody, V domains shown)
VH: EVQLQQSGPELVKPGASVKMSCKASGYTFTSYVMHWVKQKPGQGLEWIGYVNPFNDGTKYNEMFKGKATLTSDKSSSTAYMELSSLTSEDSAVYYCARQAWGYPWGQGTLVTVSA
VL: DIVLTQSPASLAVSLGQRATISCRATESVEYYGTSLVQWYQQKPGQPPKLLIYAASSVDSGVPARFSGSGSGTDFSLTIHPVEEDDIAMYFCQQSRRVPYTFGGGTKLEIK
notes: Mouse monoclonal antibody; also called Biotin-29E.2A3
B5: 24F.10C12 composite, human antibody VH2/VK2 (antibody, V domains shown)
VH: QVQLVQSGAEVKKPGASVKMSCKASGYTFTGYTMHWVKQAPGQGLEWIGYINPRSGYTEYNQKFKDRTTLTADKSTSTAYMELSSLRSEDTAVYYCARPWFAYWGQGTLVTVSS
VL: DIVMTQSPASLSVTPGEKVTITCKSSQSLLNSGNQKNYLTWYQQKPGQPPKLLIYWASTRESGVPDRFTGSGSGTDFTLTISSLQAEDVAVYYCQNDYSYPLTFGQGTKLEIK
notes: as for B1
B6: 24F.10C12 composite, human antibody VH2/VK3 (antibody, V domains shown)
VH: B5 VH
VL: B5 VL with S10F
notes: as for B1
B7: 24F.10C12 composite, human antibody VH4/VK2 (antibody, V domains shown)
VH: B5 VH with M20V, K38R
VL: B5 VL
notes: as for B1
B8: 24F.10C12 composite, human antibody VH4/VK4 (antibody, V domains shown)
VH: B5 VH with M20V, K38R
VL: B5 VL with S10F, T69S
notes: as for B1
B9: EH12.2H7 composite, human antibody VH3/VK3 (antibody, V domains shown)
VH: QVQLVQSGHEVKQPGASVKMSCKASGYSFTSSWIHWVKQAPGQGLEWIGYIYPSTGFTEYNQKFKDRATLTADKSTSTAYMELSSLRSEDTAVYYCARWRDSSGYHAMDYWGQGTLVTVSS
VL: EIVLTQSPATLSLSPGQRLTISCRASQSVSTSGYSYMHWYQQKPDQSPKLLIKFGSNLESGIPARFSGSGSGTDFTLTISSLEPEDFATYYCQHSWEIPYTFGQGTKLEIK
notes: as for B1
B10: EH12.2H7 composite, human antibody VH3/VK4 (antibody, V domains shown)
VH: B9 VH
VL: B9 VL with E1D, T89V
notes: as for B1
B11: EH12.2H7 composite, human antibody VH4/VK3 (antibody, V domains shown)
VH: B9 VH with K38R
VL: B9 VL
notes: as for B1
B12: EH12.2H7 composite, human antibody VH4/VK4 (antibody, V domains shown)
VH: B9 VH with K38R
VL: B9 VL with E1D, T89V
notes: as for B1
B13: mouse anti-human PD-1 antibody EH12.2H7 (antibody, V domains shown)
VH: QVQLQQSGAELAKPGASVQMSCKASGYSFTSSWIHWVKQRPGQGLEWIGYIYPSTGFTEYNQKFKDKATLTADKSSSTAYMQLSSLTSEDSAVYYCARWRDSSGYHAMDYWGQGTSVTVSS
VL: DIVLTQSPASLTVSLGQRATISCRASQSVSTSGYSYMHWYQQKPGQPPKLLIKFGSNLESGIPARFSGSGSGTDFTLNIHPVEEEDTATYYCQHSWEIPYTFGGGTKLEIK
notes: Mouse monoclonal antibody; also called Biotin-EH12.2H7
B14: mouse anti-human PD-L2 antibody 24F.10C12 (antibody, V domains shown)
VH: QVQLQQSAAELARPGASVKMSCKASGYTFTGYTMHWVKQRPGQGLEWIGYINPRSGYTEYNQKFKDKTTLTADKSSSTAYMQLSSLTSEDSAVYYCARPWFAYWGQGTLVTVSA
VL: B5 VL with A9S, S12T, P15A, I21M, T22S, L84V, V89L, Q106A, I112L
notes: Mouse monoclonal antibody; also called Biotin-24F.10C12

These binders were tested against T2, human Fc-PD-L1 (R&D systems) (human, UniProt Q9NZQ7 19-239) (assay: competition ELISA on coated human Fc-PD-L1; competitor biotinylated 29E.2A3).
T2 construct: Bought Fc fusion coated on the ELISA plate; also called human PD-L1; not shown: Fc part of the bought fusion protein
T2 sequence (Q9NZQ7 19-239 limits assumed): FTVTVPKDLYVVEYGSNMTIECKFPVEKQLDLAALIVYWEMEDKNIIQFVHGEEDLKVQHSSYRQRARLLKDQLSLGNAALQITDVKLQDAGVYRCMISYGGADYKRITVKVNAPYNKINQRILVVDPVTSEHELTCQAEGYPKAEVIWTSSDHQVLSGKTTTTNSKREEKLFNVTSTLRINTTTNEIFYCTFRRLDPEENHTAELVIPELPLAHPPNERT

Row | Binder | IC50
1 | B1 | 0.49 mg/L
2 | B2 | 0.27 mg/L
3 | B3 | 0.38 mg/L
4 | B4 | 0.28 mg/L

These binders were tested against T2, human Fc-PD-L1 (R&D systems) (assay: competition ELISA on coated human Fc-PD-L1; IC50 against mouse 29E.2A3).

Row | Binder | fold reduced binding compared to the mouse reference
5 | B1 | 1.75 fold
6 | B3 | 1.36 fold

The binders below were run against T1, human Fc-PD-L2 (R&D systems) (assay: competition ELISA on coated human Fc-PD-L2; IC50 against mouse 24F.10C12).

Row | Binder | fold reduced binding compared to the mouse reference
7 | B5 | 1.13 fold
8 | B6 | 1.13 fold
9 | B7 | 1.13 fold
10 | B8 | 1.13 fold

What follows are binders tested against T3, human Fc-PD-1 (R&D systems) (human, UniProt Q15116 25-167) (assay: competition ELISA on coated human Fc-PD-1; competitor biotinylated EH12.2H7).
T3 construct: Bought Fc fusion coated on the ELISA plate; also called human PD-1; not shown: Fc part of the bought fusion protein
T3 sequence (Q15116 25-167 limits assumed): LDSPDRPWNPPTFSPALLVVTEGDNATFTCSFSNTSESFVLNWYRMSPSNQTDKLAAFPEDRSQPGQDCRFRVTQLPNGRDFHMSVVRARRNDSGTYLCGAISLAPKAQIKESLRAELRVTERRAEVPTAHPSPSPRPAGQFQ

Row | Binder | IC50
11 | B9 | 0.93 mg/L
12 | B10 | 0.74 mg/L
13 | B11 | 0.57 mg/L
14 | B12 | 0.91 mg/L
15 | B13 | 1.23 mg/L

The binders below were run against T1, human Fc-PD-L2 (R&D systems) (assay: competition ELISA on coated human Fc-PD-L2; competitor biotinylated 24F.10C12).

Row | Binder | IC50
16 | B14 | 0.52 mg/L
17 | B5 | 0.58 mg/L
18 | B6 | 0.59 mg/L
19 | B7 | 0.6 mg/L
20 | B8 | 0.58 mg/L

The binders below were run against T3, human Fc-PD-1 (R&D systems) (assay: competition ELISA on coated human Fc-PD-1; IC50 against mouse EH12.2H7).

Row | Binder | fold increase in binding compared to the mouse reference
21 | B11 | 2 fold

— patent publication US20110271358A1 (Dana-Farber, published 2011)
